We go through one molecule from paper PMC11661173 (bioRxiv, 2025).

For one experiment, the target named is T1, Recombinant ERα-LBD (human, UniProt P03372 302-595).
T1 sequence (looked up): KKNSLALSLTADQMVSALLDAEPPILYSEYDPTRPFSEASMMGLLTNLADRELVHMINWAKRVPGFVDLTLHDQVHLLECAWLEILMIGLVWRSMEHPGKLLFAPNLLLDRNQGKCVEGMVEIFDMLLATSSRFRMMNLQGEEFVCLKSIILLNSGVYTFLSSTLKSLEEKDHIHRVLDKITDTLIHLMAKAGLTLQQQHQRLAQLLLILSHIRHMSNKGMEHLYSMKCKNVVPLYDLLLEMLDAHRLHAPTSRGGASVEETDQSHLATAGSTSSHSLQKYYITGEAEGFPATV
The experiment can be described thus: SPR. On the technique in general: In SPR one partner is held on a chip, and binding of the other changes the refractive index at the surface.

Another experiment addresses T2, Recombinant AR-LBD (human, UniProt P10275 672-920).
T2 sequence (looked up): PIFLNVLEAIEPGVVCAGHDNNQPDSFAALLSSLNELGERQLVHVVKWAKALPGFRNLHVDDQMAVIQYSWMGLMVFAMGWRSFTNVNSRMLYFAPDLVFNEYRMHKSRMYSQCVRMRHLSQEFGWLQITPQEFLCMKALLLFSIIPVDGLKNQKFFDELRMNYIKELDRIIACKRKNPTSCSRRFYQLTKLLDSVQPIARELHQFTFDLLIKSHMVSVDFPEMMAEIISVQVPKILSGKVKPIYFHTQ
The experiment can be described thus: SPR.

Regarding KPEWPAAELLLSLLGRLLVHQFSNKSTE [human NIPBL-C2^WT peptide], the binding result in the experiment with Recombinant ERα-LBD and in the experiment with Recombinant AR-LBD was “binds” in each case.
